{"source": "patent US20240409629A1", "about": "(CHIA TAI TIANQING PHARMACEUTICAL GROUP, published 2024)", "binders": {"B1": {"name": "IMAB362 (antibody, human IgG1, kappa, V domains shown)", "VH": "QVQLQQPGAELVRPGASVKLSCKASGYTFTSYWINWVKQRPGQGLEWIGNIYPSDSYTNYNQKFKDKATLTVDKSSSTAYMQLSSPTSEDSAVYYCTRSWRGNSFDYWGQGTTLTVSS", "VL": "DIVMTQSPSSLTVTAGEKVTMSCKSSQSLLNSGNQKNYLTWYQQKPGQPPKLLIYWASTRESGVPDRFTGSGSGTDFTLTISSVQAEDLAVYYCQNDYSYPFTFGSGTKLEIKR", "notes": "Positive control, prepared in-house; also called Claudiximab; TMAB362 [sic]"}}, "key": {"human CLDN18.2 [1]": {"biological_target": "T1, human CLDN18.2 (human)", "T1 construct": "also called claudin18.2", "assay": "FACS, KATOIII cells (natural CLDN18.2)", "protocol": "(§1) Based on the FACS method, the binding activity of anti-CLDN18.2 antibodies for the cell line U2OS-CLDN18.2 overexpressing CLDN18.2 and the cell lines KATOIII (Cell Bank of the Chinese Academy of Sciences) and NUGC-4 (Cell Bank of the Chinese Academy of Sciences) naturally expressing CLDN18.2 was analyzed.\n(§2) The cell concentration was adjusted with PBS, and cells (U2OS-CLDN18.2, KATOIII, or NUGC-4 cells) were added to a 96-well plate at 3×10⁵ cells/well, then the test antibodies at different concentrations were added to each well of the 96-well plate, and the mixture was incubated at 4° C. for 60 min. […] The supernatant was discarded, the cells were washed 3 times with pre-cooled PBS buffer, PE-Goat Anti-Human IgG Fcγ (Jackson immunoresearch, Cat. No. 109-116-170) diluted at 1:200 was added at 100 μL/well, and the mixture was incubated at 4° C. for 30 min. Cells were washed 3 times with pre-cooled PBS buffer and resuspended in 100 μL of PBS buffer, and then the fluorescence signals were detected using a flow cytometer (Sartorius, iQUE3). The binding ability of the anti-CLDN18.2 antibodies for CLDN18.2 was measured by mean fluorescence intensity (MFI) of staining."}, "human CLDN18.2 [2]": {"biological_target": "T1, human CLDN18.2", "assay": "FACS, U2OS-CLDN18.2 cells", "protocol": "as §1, §2"}, "human CLDN18.2 [3]": {"biological_target": "T1, human CLDN18.2", "assay": "FACS, NUGC-4 cells (natural CLDN18.2)", "protocol": "(§3) Based on the FACS method, the binding activity of anti-CLDN18.2 humanized antibodies for the cell lines KATOIII (Cell Bank of the Chinese Academy of Sciences) and NUGC-4 (Cell Bank of the Chinese Academy of Sciences) naturally expressing CLDN18.2 was analyzed. […] See Example 3 for the specific method."}, "human CLDN18.2 [4]": {"biological_target": "T1, human CLDN18.2", "assay": "cell-based or functional assay"}, "human CLDN18.2 [5]": {"biological_target": "T1, human CLDN18.2", "assay": "cell-based or functional assay", "remark": "listed apart in the source"}, "human CLDN18.2 [6]": {"biological_target": "T1, human CLDN18.2", "assay": "FACS, KATOIII cells (natural CLDN18.2)", "protocol": "as §1, §2", "remark": "listed apart in the source"}, "human CLDN18.2 [7]": {"biological_target": "T1, human CLDN18.2", "assay": "cell-based or functional assay", "remark": "listed apart in the source"}, "human CLDN18.2 [8]": {"biological_target": "T1, human CLDN18.2", "assay": "cell-based or functional assay", "remark": "listed apart in the source"}, "human CLDN18.2 [9]": {"biological_target": "T1, human CLDN18.2", "assay": "FACS, U2OS-CLDN18.2 cells", "protocol": "as §1, §2", "remark": "listed apart in the source"}, "human CLDN18.2 [10]": {"biological_target": "T1, human CLDN18.2", "assay": "FACS, KATOIII cells (natural CLDN18.2)", "protocol": "as §3", "remark": "listed apart in the source"}, "human CLDN18.2 [11]": {"biological_target": "T1, human CLDN18.2", "assay": "cell-based or functional assay", "remark": "listed apart in the source"}, "human CLDN18.2 [12]": {"biological_target": "T1, human CLDN18.2", "assay": "FACS, NUGC-4 cells (natural CLDN18.2)", "protocol": "as §1, §2", "remark": "listed apart in the source"}, "human CLDN18.2 [13]": {"biological_target": "T1, human CLDN18.2", "assay": "FACS, U2OS-CLDN18.2 cells", "protocol": "as §1, §2", "remark": "listed apart in the source"}, "human CLDN18.1": {"biological_target": "T2, human CLDN18.1 (human, UniProt P56856 1-261)", "T2 construct": "also called claudin18.1", "assay": "FACS, U2OS-CLDN18.1 cells, antibody at 200 nM", "protocol": "Based on the FACS method, the binding activity of anti-CLDN18.2 antibodies for the cell line U2OS-CLDN18.1 overexpressing CLDN18.1 (SEQ ID NO: 2) was analyzed. The cell concentration was adjusted with PBS, and the U2OS-CLDN18.1 cells were added to a 96-well plate at 3×10⁵ cells/well, then the test antibodies were added to each well of the 96-well plate, the final concentration of the antibody was 200 nM, and the mixture was incubated at 4° C. for 60 min. The supernatant was discarded, the cells were washed 3 times with pre-cooled PBS buffer, PE-Goat Anti-Human IgG Fcγ (Jackson immunoresearch, Cat. No. 109-116-170) diluted at 1:200 was added at 100 μL/well, and the mixture was incubated at 4° C. for 30 min. Cells were washed 3 times with pre-cooled PBS buffer and resuspended in 100 μL of PBS buffer, and then the fluorescence signals were detected using a flow cytometer (Sartorius, iQUE3). The nonspecific binding of the anti-CLDN18.2 antibodies for U2OS-CLDN18.1 cells was measured by mean fluorescence intensity (MFI) of staining. The IgG1 isotype control antibody (prepared in-house, with the heavy and light chain amino acid sequences as set forth in SEQ ID NOs: 67 and 68 in the present disclosure) was used as the control, and 2-fold the IgG1 isotype control antibody was used as the benchmark, thus determining the presence or absence of nonspecific binding."}, "human CLDN18.2 [14]": {"biological_target": "T1, human CLDN18.2", "assay": "FACS, NUGC-4 cells (natural CLDN18.2)", "protocol": "as §1, §2", "remark": "listed apart in the source"}, "human CLDN18.2 [15]": {"biological_target": "T1, human CLDN18.2", "assay": "FACS, KATOIII cells (natural CLDN18.2)", "protocol": "as §3", "remark": "listed apart in the source"}, "human CLDN18.2 [16]": {"biological_target": "T1, human CLDN18.2", "assay": "FACS, NUGC-4 cells (natural CLDN18.2)", "protocol": "as §3", "remark": "listed apart in the source"}, "human CLDN18.2 [17]": {"biological_target": "T1, human CLDN18.2", "assay": "cell-based or functional assay", "remark": "listed apart in the source"}, "human CLDN18.2 [18]": {"biological_target": "T1, human CLDN18.2", "assay": "FACS, NUGC-4 cells (natural CLDN18.2)", "protocol": "as §1, §2", "remark": "listed apart in the source"}}, "note": "Like-named read-outs stand apart in the source and are kept apart here.", "data": [{"binder": "B1", "values": [{"measurement": "EC50", "setting": "human CLDN18.2 [1]", "result": "~26900", "unit": "nM"}, {"measurement": "EC50", "setting": "human CLDN18.2 [2]", "result": 16.2, "unit": "nM"}, {"measurement": "EC50", "setting": "human CLDN18.2 [3]", "result": 567, "unit": "nM"}, {"measurement": "ADCC EC50, Jurkat-CD16a v158-NFAT-luciferase effector cells, KATOIII target cells", "setting": "human CLDN18.2 [4]", "result": 16.9, "unit": "nM"}, {"measurement": "ADCC EC50, Jurkat-CD16a v158-NFAT-luciferase effector cells, U2OS-CLDN18.2 target cells", "setting": "human CLDN18.2 [4]", "result": 0.014, "unit": "nM"}, {"measurement": "ADCC EC50, PBMC effector cells, KATOIII target cells", "setting": "human CLDN18.2 [5]", "result": "~0.123", "unit": "nM"}, {"measurement": "ADCC EC50, PBMC effector cells, NUGC-4 target cells", "setting": "human CLDN18.2 [5]", "result": 37.1, "unit": "nM"}, {"measurement": "ADCC Maximum killing (%), PBMC effector cells, KATOIII target cells", "setting": "human CLDN18.2 [5]", "result": 20.7, "unit": "%"}, {"measurement": "ADCC Maximum killing (%), PBMC effector cells, NUGC-4 target cells", "setting": "human CLDN18.2 [5]", "result": 29.1, "unit": "%"}, {"measurement": "EC50", "setting": "human CLDN18.2 [6]", "result": 81.3, "unit": "nM"}, {"measurement": "ADCC EC50, Jurkat-CD16a v158-NFAT-luciferase effector cells, KATOIII target cells", "setting": "human CLDN18.2 [7]", "result": 1.52, "unit": "nM"}, {"measurement": "ADCC EC50, Jurkat-CD16a v158-NFAT-luciferase effector cells, NUGC-4 target cells", "setting": "human CLDN18.2 [7]", "result": 12, "unit": "nM"}, {"measurement": "ADCC EC50, Jurkat-CD16a v158-NFAT-luciferase effector cells, U2OS-CLDN18.2 target cells", "setting": "human CLDN18.2 [7]", "result": 0.05, "unit": "nM"}, {"measurement": "CDC EC50, KATOIII target cells", "setting": "human CLDN18.2 [8]", "result": 12.8, "unit": "nM"}, {"measurement": "CDC EC50, U2OS-CLDN18.2 target cells", "setting": "human CLDN18.2 [8]", "result": 9.79, "unit": "nM"}, {"measurement": "EC50", "setting": "human CLDN18.2 [9]", "result": 22.9, "unit": "nM"}, {"measurement": "EC50", "setting": "human CLDN18.2 [10]", "result": 16.3, "unit": "nM"}, {"measurement": "ADCC EC50, Jurkat-CD16a v158-NFAT-luciferase effector cells, NIH-3T3-CLDN18.2 target cells", "setting": "human CLDN18.2 [11]", "result": 0.023, "unit": "nM"}, {"measurement": "ADCC EC50, Jurkat-CD16a v158-NFAT-luciferase effector cells, NUGC-4 target cells", "setting": "human CLDN18.2 [11]", "result": 0.856, "unit": "nM"}, {"measurement": "EC50", "setting": "human CLDN18.2 [12]", "result": 202, "unit": "nM"}, {"measurement": "EC50", "setting": "human CLDN18.2 [13]", "result": 16, "unit": "nM"}, {"measurement": "MFI", "setting": "human CLDN18.1", "result": 6220}, {"measurement": "EC50", "setting": "human CLDN18.2 [14]", "result": 1450, "unit": "nM"}, {"measurement": "EC50", "setting": "human CLDN18.2 [15]", "result": 38.2, "unit": "nM"}, {"measurement": "EC50", "setting": "human CLDN18.2 [16]", "result": 293, "unit": "nM"}, {"measurement": "CDC EC50, NIH-3T3-CLDN18.2 target cells", "setting": "human CLDN18.2 [17]", "result": 24.4, "unit": "nM"}, {"measurement": "EC50", "setting": "human CLDN18.2 [18]", "result": 567, "unit": "nM"}]}]}
